# Measured values: patent US6573045, “Methods and kits for discovery of RNA-binding compounds” (Ribotargets, Ltd.)
# Legend:
# Rev peptide [1] = target: T1, Rev peptide (Human immunodeficiency virus 1); experiment: FRET quenching; TAMRA-Rev and DABCYL-TAR; 50 mM Tris pH 8, 50 mM KCl, room temp; conditions: protein: synthetic; tags: chemically synthesised peptide; N-terminal TAMRA; label: 3'-DABCYL or 5'-Cy3; hairpin with bulge
# Rev peptide [2] = target: T1, Rev peptide; experiment: FRET quenching; ±23; TAMRA-Rev and DABCYL-RRE; 50 mM Tris pH 8, 50 mM KCl, room temp; conditions: protein: synthetic; tags: chemically synthesised peptide; N-terminal TAMRA; label: 3'-DABCYL or 5'-FAM; hairpin
binder,measurement,setting,value
CCCAGAUCUGAGCCUGGGAGCUCUCUGGG (ssRNA) [TAR RNA 29-mer],Kd,Rev peptide [1],11 µM
CGUGUGGGCGCAGCGUCAAUGACGCUGCGGUACACACG (ssRNA) [RRE RNA],Kd,Rev peptide [2],0.137 µM
